Data from patent US20050186203A1 (published 2005).
Positions count from the first letter of the chain named. One block for each binder: values may come before it.

How the values were obtained:
[1] = target: T1, purified full-length human IGF-I receptor (affinity purified); directly coated or biotinylated and captured on … (human, UniProt P08069 31-1367, biotinylated with PEO-maleimide-biotin reagent in the captured format); test: ELISA binding competition with murine EM164 on full-length IGF-I receptor
T1 construct: mature; also called purified human IGF-I receptor; biotinylated human IGF-I receptor
Experimental: (§1) After equilibration, the bound humanized antibody was detected using a goat-anti-human-Fab′₂-antibody-horseradish peroxidase conjugate. Plots of ([bound murine Ab]/[bound humanized Ab]) vs ([murine Ab]/[humanized Ab]), which theoretically yield a straight line with slope=(K_{d humanized Ab}/K_{d murine Ab}), were used to determine the relative affinities of the humanized and murine antibodies.
(§2) An Immulon-2HB ELISA plate was coated with 100 μL of 5 μg/mL streptavidin per well in carbonate buffer at ambient temperature for 7 h. […] The wells were then washed with TBS-T buffer and incubated with goat-anti-human-Fab′₂-antibody-horseradish peroxidase conjugate for 1 h (100 μL; 1 μg/mL in blocking buffer), followed by washes and detection using ABTS/H₂O₂ substrate at 405 nm.

[2] = target: T1, purified full-length human IGF-I …; test: ELISA binding competition with murine EM164 on captured biotinylated IGF-I receptor
Experimental: as §1, §2

[3] = target: IGF-I receptor of 3T3 cells (mouse) (mouse, UniProt Q60751 31-1373); test: immunoprecipitation from cell lysate, Western blot
[4] = target: T2, human insulin receptor, overexpressed on 3T3-like cells of IGF-I receptor deficient mice (human, UniProt P06213 28-1382); test: FACS on cells overexpressing human insulin receptor
T2 construct: whole, on cells; also called insulin receptor overexpressing cells
Experimental: The cells were pelleted by centrifugation and washed with cold FACS buffer by gentle flicking, followed by incubation with goat-anti-mouse-IgG-antibody-FITC conjugate (100 μL; 10 μg/mL in FACS buffer) on ice for 1 h. The cells were pelleted, washed, and resuspended in 120 μL of 1% formaldehyde solution in PBS. The plate was analyzed using a FACSCalibur reader (BD Biosciences).

IGF-I receptor of 3T3 cells (mouse), sequence (Q60751 31-1373 limits assumed): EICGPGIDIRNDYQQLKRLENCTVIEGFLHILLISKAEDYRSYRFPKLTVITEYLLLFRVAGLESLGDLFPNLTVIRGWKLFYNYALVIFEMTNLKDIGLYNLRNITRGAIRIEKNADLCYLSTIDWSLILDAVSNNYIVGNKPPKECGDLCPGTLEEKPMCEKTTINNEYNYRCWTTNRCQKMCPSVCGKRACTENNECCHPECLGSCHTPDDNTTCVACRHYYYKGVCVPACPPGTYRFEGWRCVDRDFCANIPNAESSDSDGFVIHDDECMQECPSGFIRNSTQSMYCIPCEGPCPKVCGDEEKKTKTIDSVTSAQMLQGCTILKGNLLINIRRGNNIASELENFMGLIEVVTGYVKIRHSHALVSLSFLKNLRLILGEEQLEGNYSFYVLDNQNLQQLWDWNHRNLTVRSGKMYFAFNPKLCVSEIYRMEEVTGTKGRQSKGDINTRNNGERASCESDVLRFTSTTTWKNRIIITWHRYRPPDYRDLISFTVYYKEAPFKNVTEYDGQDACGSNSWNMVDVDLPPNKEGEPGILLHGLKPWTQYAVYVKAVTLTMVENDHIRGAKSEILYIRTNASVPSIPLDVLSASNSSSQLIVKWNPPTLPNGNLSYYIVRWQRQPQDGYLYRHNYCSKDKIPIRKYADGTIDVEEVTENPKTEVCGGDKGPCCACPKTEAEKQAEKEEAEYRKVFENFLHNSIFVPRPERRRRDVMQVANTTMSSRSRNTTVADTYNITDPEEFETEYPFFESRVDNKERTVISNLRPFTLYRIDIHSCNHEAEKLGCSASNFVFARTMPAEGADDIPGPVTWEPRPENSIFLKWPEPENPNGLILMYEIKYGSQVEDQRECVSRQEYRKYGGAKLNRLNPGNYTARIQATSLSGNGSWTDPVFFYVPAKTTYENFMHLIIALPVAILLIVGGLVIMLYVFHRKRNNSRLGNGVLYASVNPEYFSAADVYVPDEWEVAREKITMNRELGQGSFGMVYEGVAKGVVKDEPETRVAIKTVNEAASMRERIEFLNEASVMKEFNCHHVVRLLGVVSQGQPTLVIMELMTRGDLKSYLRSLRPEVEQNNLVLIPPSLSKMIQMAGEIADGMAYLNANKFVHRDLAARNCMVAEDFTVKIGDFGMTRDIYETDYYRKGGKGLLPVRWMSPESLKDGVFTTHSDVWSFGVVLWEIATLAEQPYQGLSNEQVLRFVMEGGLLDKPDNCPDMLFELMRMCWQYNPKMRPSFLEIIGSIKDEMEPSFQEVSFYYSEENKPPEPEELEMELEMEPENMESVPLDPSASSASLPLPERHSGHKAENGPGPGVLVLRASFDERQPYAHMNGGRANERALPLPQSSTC

binding result [1]: binds
B1: humanized EM164 antibody version 1.1 (antibody, V domains shown)
VH: QVQLVQSGAEVVKPGASVKLSCKASGYTFTSYWMHWVKQRPGQGLEWIGEINPSNGRTNYNQKFQGKATLTVDKSSSTAYMQLSSLTSEDSAVYYFARGRPDYYGSSKWYFDVWGQGTTVTVS
VL: DVLMTQTPLSLPVSLGDPASISCRSSQSIVHSNVNTYLEWYLQKPGQSPKLLIYKVSNRFSGVPDRFSGSGAGTDFTLRISRVEAEDLGIYYCFQGSHVPPTFGGGTKLEIKR
notes: Expressed transiently in 293T cells; also called huEM164 V1.1; v1.1

binding result [2]: binds
B2: humanized EM164 antibody version 1.0 (antibody, V domains shown)
VH: B1 VH
VL: B1 VL with L3V, K50R
notes: Expressed transiently in 293T cells; also called huEM164 V1.0; huEM164 v1.0

binding result [3]: no binding | binding result [4]: no binding (tested: 50-100 nM)
B3: murine anti-IGF-I receptor antibody EM164 (antibody, V domains shown)
VH: B1 VH with V5Q, V11L, Q62E, Q65K, G66R, Q116A
VL: B1 VL with P18Q, A72S
notes: also called EM164 antibody; muEM164

binding result [1]: binds
B4: humanized EM164 antibody version 1.2 (antibody, V domains shown)
VH: B1 VH
VL: B1 VL with K50R
notes: Expressed transiently in 293T cells; also called huEM164 V1.2; v1.2
